Reference: patent US20180364256A1 (WAYNE STATE UNIVERSITY, published 2018)

T1: N-terminal fragment of human cardiac troponin T (HcTnT-N69) (human)
T1 construct: Recombinantly produced and purified; immobilised on microtiter plates in the ELISA; also the immunogen; also called N69 peptide; isolated (free, cleaved) HcTnT-N69 peptide
T1 peptide: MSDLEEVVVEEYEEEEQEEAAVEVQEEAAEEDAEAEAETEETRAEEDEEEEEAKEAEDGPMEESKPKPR


Target: T1, N-terminal fragment of human cardiac …
Experiment: assay not named in the sentence (ELISA titration per the Examples)
Procedure: (§1) Purified HcTnT-N69 (also called N69) having the amino acid sequences shown in SEQ ID NO:1 or intact human cTnT antigen was immobilized on microtiter plates. After washing and blocking the plastic surface with 1% BSA and 0.05% Tween-20, the immobilized antigen was incubated with serial dilutions of the anti-N69 mAbs. Following washes to remove the unbound antibody, the plates were further incubated with HRP-conjugated second antibody followed by washes and H₂O₂-ABTS substrate reaction. A₄₁₅ₙₘ curve for each assay well was recorded by an automated microplate reader.

Row | Binder | binding result
1 | mouse monoclonal antibody 2H3 (antibody, IgM, V domains shown, Mouse hybridoma mAb, IgM kappa (VH3/VL5); also called mAb 2H3; Class V mAb) VH: GGGLVQPKGSLKLSCAASGFTFNTYAMNWVRQAPGKGLEWVARIRSKSNNYATYYADSVKDRFTISRDDSQSMLYLQMNNLKTEDTAMYYCVRHDGVAWFAYWGQGTLVTVSA VL: LSLPVSLGDQASISCRSSQSIVHSNGNTYLEWYLQKPGQSPKLLIYKVSNRFSGVPDRFSGSGSGTDFTLKISRVKAEDLGVYYCFQGSHVPPTFGAGTKLELKR | binds
2 | mouse monoclonal antibody 2D9 (antibody, IgM, V domains shown, Mouse hybridoma mAb, IgM kappa (VH3/VL7); also called mAb 2D9; Class VII mAb) VH: GGGLVQPKGSLKLSCAASGFTFNTYAMNWVRQAPGKGLEWVARIRSKSNNYATYYADSVKDRFTISRDDSQSMLYLQMNNLKTEDTAMYYCVRHDGVAWFAYWGQGTLVTVSA VL: LSLPVSLGDQASISCKSSQSIVHSNGNTYLKWYLQKPGQSPKLLIYKVSNRFSGVPDRFSGSGSGTDFTLKISRVKAEDLGVYYCFQGSHVPPTFGAGTKLELKR | binds
3 | mouse monoclonal antibody 4F5 (antibody, IgM, V domains shown, Mouse hybridoma mAb, IgM kappa (VH3/VL6); also called mAb 4F5; Class VI mAb) VH: GGGLVQPKGSLKLSCAASGFTFNTYAMNWVRQAPGKGLEWVARIRSKSNNYATYYADSVKDRFTISRDDSQSMLYLQMNNLKTEDTAMYYCVRHDGVAWFAYWGQGTLVTVSA VL: LSLPVSLGDQASISCKSSQSIVHSNGNTYLEWYLQKPGQSPKLLIYKVSNRFSGVPDRFSGSGSGTDFTLKISRVKAEDLGVYYCFQGSHVPPTFGAGTKLELKR | binds

Target: T1, N-terminal fragment of human cardiac …
Experiment: indirect ELISA titration, antigen immobilised on plate
Procedure: as §1

Row | Binder | binding result
4 | mouse monoclonal antibody 1D6 (antibody, V domains shown, Mouse hybridoma mAb, IgG1 kappa (VH1/VL1); they appear to lack the first N-terminal residues; also called mAb 1D6; Class I mAb) VH: GPELVKPGASVKISCKTSGYTFTENTIHWVKQSHGKSLEWVGGINPNNGGTNYNQKFKGRAALTVDKSSSTAYMELRSLTSEDSAVYYCARSWDWFAYWGQGTLVTVSA VL: LSLPVSLGDQASISCRSSQSLVHSNGNTYLHWYLQKPGQSPKLLVYKVSNRFSGVPDRFSGSGSGTDFTLKIIRVEAEDLGVYFCSQSTRIPFTFGSGTKLEMKR | binds
5 | mouse monoclonal antibody 2D11 (antibody, IgG1, V domains shown, Mouse hybridoma mAb, IgG1 kappa (VH1/VL2); also called mAb 2D11; Class II mAb) VH: GPELVKPGASVKISCKTSGYTFTENTIHWVKQSHGKSLEWVGGINPNNGGTNYNQKFKGRAALTVDKSSSTAYMELRSLTSEDSAVYYCARSWDWFAYWGQGTLVTVSA VL: LSLPVSLGDQASISCRSSQSLVHSNGNTYLHWYLQKPGQSPKLLVYKVSNRFSGVPDRFSGSGSGTDFTLKIIRVKAEDLGVYFCSQSTRIPFTFGSGTKLEMKR | binds
6 | mouse monoclonal antibody 2A8 (antibody, V domains shown, Mouse hybridoma mAb, IgG1 kappa (VH1/VL1), separately isolated hybridoma with the same variable regions as 1D6; also called Class I mAb; anti-N69 mAb) VH: GPELVKPGASVKISCKTSGYTFTENTIHWVKQSHGKSLEWVGGINPNNGGTNYNQKFKGRAALTVDKSSSTAYMELRSLTSEDSAVYYCARSWDWFAYWGQGTLVTVSA VL: LSLPVSLGDQASISCRSSQSLVHSNGNTYLHWYLQKPGQSPKLLVYKVSNRFSGVPDRFSGSGSGTDFTLKIIRVEAEDLGVYFCSQSTRIPFTFGSGTKLEMKR | binds
7 | mouse monoclonal antibody 2C1 (antibody, V domains shown, Mouse hybridoma mAb, IgG1 kappa (VH1/VL1), separately isolated hybridoma with the same variable regions as 1D6; also called Class I mAb; anti-N69 mAb) VH: GPELVKPGASVKISCKTSGYTFTENTIHWVKQSHGKSLEWVGGINPNNGGTNYNQKFKGRAALTVDKSSSTAYMELRSLTSEDSAVYYCARSWDWFAYWGQGTLVTVSA VL: LSLPVSLGDQASISCRSSQSLVHSNGNTYLHWYLQKPGQSPKLLVYKVSNRFSGVPDRFSGSGSGTDFTLKIIRVEAEDLGVYFCSQSTRIPFTFGSGTKLEMKR | binds
8 | mouse monoclonal antibody 3H5 (antibody, IgM, V domains shown, Mouse hybridoma mAb, IgM kappa (VH3/VL4); also called mAb 3H5; Class IV mAb) VH: GGGLVQPKGSLKLSCAASGFTFNTYAMNWVRQAPGKGLEWVARIRSKSNNYATYYADSVKDRFTISRDDSQSMLYLQMNNLKTEDTAMYYCVRHDGVAWFAYWGQGTLVTVSA VL: LSLPVSLGDQASISCRSSQSIVHSNGNTYLEWYLQKPGQSPKLLIYKVSNRFSGVPDRFSGSGSGTDFTLKISRVEAEDLGVYYCFQGSHVPPTFGAGTKLELKR | binds
9 | mouse monoclonal antibody 1E11 (antibody, IgG3, V domains shown, Mouse hybridoma mAb, IgG3 kappa (VH2/VL3); also called mAb 1E11; Class III mAb) VH: GAELAKPGASVKMSCKASGYTFTTYWMHWVKQRPGQGLEWIGFINPSTGYTEYNQKFKDKATLTADKSSSTAYMQLSSLTSGDSAVYYCARKSFAYWGHGTLVTVSA VL: not shown | binds
